According to publication PMC8263621, “A simple label-free electrochemical sensor for sensitive detection of alpha-fetoprotein based on specific aptamer immobilized platinum nanoparticles/carboxylated-graphene oxide”:

Biological target: T1, alpha-fetoprotein (AFP) (UniProt P02771 19-609)
T1 sequence: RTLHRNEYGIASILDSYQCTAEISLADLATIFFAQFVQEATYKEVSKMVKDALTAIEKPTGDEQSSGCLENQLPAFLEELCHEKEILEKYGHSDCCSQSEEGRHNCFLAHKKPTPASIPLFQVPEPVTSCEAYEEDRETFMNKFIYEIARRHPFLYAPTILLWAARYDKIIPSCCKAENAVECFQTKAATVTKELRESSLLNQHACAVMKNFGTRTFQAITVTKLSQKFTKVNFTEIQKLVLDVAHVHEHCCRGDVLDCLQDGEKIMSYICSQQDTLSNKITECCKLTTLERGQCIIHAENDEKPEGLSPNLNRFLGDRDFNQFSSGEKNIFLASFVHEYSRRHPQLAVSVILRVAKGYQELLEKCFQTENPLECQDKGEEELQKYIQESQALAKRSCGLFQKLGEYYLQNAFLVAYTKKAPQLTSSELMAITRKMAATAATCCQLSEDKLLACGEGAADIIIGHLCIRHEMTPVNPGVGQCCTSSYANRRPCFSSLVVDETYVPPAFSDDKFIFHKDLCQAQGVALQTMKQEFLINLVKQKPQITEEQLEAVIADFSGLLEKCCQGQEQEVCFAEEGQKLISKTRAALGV
Assay: electrochemical aptasensor (CV/SWV); aptamer immobilized on PtNPs/GO-COOH/SPGE; 3 mM hydroquinone probe; LOD 1.22 ng/mL, linear 3-30 ng/mL (not a Kd); 10 mM PBS pH 7.4, 3 mM hydroquinone for readout; BSA-blocked electrode (0.25% w/v); AFP incubation 45 min at room temperature
Details: protein: commercial

B1: AFP aptamer (ssDNA)
DNA: GTGACGCTCCTAACGCTGACTCAGGTGCAGTTCTCGACTCGGTCTTGATGTGGGTCCTGTCCGTCCGAACCAATC
modifications: 5'-NH2
  binding result: binds
